Reference: patent publication US20230416345A1 (NAVIGO PROTEINS, published 2023)

T1: human collagen type III (human, UniProt P02461 154-1221)
T1 construct: Bought; also called h Col III; type III collagen
T1 sequence (looked up): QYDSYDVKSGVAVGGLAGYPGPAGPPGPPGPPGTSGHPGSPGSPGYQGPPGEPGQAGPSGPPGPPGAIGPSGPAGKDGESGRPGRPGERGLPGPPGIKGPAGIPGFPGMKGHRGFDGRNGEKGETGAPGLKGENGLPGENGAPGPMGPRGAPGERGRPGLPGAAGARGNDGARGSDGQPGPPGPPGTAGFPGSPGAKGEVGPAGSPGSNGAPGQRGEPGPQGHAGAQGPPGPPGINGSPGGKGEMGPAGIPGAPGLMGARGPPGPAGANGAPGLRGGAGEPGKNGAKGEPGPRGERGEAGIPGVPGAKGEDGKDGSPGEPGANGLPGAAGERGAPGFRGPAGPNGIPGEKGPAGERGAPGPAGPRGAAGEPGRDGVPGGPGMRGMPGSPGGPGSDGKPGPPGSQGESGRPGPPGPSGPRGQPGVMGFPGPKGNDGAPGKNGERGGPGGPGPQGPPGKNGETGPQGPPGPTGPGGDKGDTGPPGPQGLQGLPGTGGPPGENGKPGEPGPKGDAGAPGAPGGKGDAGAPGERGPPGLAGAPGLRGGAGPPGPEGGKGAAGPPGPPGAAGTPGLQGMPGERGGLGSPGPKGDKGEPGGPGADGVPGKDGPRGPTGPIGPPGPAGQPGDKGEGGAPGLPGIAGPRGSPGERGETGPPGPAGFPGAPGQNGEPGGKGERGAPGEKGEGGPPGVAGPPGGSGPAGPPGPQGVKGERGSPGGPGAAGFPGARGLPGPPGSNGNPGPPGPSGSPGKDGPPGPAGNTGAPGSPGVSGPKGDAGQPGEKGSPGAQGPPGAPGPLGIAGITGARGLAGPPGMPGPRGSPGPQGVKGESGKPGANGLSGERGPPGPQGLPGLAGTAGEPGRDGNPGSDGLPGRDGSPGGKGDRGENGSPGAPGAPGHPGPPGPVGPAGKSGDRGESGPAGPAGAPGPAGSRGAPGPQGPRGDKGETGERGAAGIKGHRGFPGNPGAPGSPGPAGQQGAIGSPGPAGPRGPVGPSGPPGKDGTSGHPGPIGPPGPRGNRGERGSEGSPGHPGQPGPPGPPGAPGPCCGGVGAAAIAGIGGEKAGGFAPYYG


Tests used:
human collagen type III [1] = target: T1, human collagen type III; test: ELISA, h Col III coated on the plate, A 450-600 nm
Experimental: (§1) High binding plates (Greiner, 781061) were immobilized with 2.5 μg/ml recombinant human collagen type II (h Col II, Chondrex, CHX-20051), rabbit collagen type II (rbCol II, prepared from rabbit eyes), porcine collagen type II (p Col II, prepared from porcine eyes), human collagen type I, (h Col I, Sigma, C5483-1MG), human collagen type V (h Col V, Abcam, ab7537), human collagen type III (h Col Ill, Abcam, ab7535) and 67B89 (domain of fibronectin, produced in E. coli) respectively over night at 4° C. ELISA-plates were washed 3 times with PBST (PBS+ 0.1% Tween) and blocked with 3% BSA/0.5% Tween/PBS 2 h at RT. […] Plates were washed with PBST and incubated with biotinylated anti-StrepTag-ab (Antikörper-online, ABIN1573895) with a dilution of 1:10.000 for 1 h at rt. The binding was visualized with a-rabbit-IgG-HRP (Sigma, A9169) with a dilution of 1:10.000 and as substrate TMB Plus von KEM EN TEC Diagnostic, Kat-Nr. 4395.
(§2) Results. ELISA analysis clearly confirms the specific binding to type II collagen. […] No unspecific binding to type I collagen, type III collagen, type V collagen or to a domain of fibronectin (67B89) was detected (FIG. 2).

[2] = target: T2, 67B89 (domain of fibronectin) (UniProt P02751 1089-1540, limits assumed); test: ELISA, 67B89 coated on the plate, A 450-600 nm
T2 construct: domain: EDB (67B89); Unrelated control protein; also called fibronectin domain EDB (67B89); extradomain B of fibronectin
T2 sequence (P02751 1089-1540 limits assumed): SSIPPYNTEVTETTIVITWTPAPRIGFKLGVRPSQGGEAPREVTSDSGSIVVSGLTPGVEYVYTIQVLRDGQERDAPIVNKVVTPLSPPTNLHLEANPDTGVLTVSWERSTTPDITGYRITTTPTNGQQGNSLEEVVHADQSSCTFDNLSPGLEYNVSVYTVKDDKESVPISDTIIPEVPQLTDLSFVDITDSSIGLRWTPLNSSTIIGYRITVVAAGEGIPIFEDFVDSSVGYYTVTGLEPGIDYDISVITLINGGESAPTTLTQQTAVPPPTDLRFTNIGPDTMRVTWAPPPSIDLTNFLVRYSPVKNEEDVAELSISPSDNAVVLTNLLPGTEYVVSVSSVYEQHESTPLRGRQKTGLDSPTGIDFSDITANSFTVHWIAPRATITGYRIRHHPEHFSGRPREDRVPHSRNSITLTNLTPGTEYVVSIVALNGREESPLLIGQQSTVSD
Experimental: as §1, §2

human collagen type I [3] = target: T3, human collagen type I (human, UniProt P02452 162-1218; P08123 80-1119); test: ELISA, h Col I coated on the plate, A 450-600 nm
T3 construct: Bought; also called h Col I; type I collagen
T3 sequence (P02452 162-1218, chain 1 of 2): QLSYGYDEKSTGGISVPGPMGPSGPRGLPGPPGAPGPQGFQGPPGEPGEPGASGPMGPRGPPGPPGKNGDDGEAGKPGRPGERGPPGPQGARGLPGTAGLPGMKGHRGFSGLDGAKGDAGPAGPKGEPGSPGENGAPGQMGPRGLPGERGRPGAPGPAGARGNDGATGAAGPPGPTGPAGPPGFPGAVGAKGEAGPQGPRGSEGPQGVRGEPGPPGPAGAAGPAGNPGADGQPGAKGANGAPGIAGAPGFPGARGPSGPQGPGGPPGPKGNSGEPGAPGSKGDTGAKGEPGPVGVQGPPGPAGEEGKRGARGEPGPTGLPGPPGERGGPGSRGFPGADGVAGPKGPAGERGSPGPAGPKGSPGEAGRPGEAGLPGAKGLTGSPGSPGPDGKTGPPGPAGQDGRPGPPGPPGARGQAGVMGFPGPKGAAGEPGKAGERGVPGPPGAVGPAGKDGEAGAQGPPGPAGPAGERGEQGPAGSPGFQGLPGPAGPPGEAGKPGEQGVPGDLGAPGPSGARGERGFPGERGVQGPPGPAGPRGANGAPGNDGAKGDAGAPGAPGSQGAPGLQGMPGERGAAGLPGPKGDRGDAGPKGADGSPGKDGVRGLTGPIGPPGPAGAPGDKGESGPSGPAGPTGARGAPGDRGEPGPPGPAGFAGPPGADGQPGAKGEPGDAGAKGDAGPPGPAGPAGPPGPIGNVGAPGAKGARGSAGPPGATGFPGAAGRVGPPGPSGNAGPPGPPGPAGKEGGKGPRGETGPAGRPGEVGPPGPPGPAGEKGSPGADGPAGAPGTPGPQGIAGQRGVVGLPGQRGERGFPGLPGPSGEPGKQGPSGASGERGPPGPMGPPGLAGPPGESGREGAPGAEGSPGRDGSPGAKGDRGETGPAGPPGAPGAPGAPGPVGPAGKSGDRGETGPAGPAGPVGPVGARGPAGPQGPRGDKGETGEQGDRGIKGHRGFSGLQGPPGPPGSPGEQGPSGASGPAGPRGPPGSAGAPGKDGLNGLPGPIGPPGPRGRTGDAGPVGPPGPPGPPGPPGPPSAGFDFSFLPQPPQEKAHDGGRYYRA
T3 sequence (P08123 80-1119, chain 2 of 2): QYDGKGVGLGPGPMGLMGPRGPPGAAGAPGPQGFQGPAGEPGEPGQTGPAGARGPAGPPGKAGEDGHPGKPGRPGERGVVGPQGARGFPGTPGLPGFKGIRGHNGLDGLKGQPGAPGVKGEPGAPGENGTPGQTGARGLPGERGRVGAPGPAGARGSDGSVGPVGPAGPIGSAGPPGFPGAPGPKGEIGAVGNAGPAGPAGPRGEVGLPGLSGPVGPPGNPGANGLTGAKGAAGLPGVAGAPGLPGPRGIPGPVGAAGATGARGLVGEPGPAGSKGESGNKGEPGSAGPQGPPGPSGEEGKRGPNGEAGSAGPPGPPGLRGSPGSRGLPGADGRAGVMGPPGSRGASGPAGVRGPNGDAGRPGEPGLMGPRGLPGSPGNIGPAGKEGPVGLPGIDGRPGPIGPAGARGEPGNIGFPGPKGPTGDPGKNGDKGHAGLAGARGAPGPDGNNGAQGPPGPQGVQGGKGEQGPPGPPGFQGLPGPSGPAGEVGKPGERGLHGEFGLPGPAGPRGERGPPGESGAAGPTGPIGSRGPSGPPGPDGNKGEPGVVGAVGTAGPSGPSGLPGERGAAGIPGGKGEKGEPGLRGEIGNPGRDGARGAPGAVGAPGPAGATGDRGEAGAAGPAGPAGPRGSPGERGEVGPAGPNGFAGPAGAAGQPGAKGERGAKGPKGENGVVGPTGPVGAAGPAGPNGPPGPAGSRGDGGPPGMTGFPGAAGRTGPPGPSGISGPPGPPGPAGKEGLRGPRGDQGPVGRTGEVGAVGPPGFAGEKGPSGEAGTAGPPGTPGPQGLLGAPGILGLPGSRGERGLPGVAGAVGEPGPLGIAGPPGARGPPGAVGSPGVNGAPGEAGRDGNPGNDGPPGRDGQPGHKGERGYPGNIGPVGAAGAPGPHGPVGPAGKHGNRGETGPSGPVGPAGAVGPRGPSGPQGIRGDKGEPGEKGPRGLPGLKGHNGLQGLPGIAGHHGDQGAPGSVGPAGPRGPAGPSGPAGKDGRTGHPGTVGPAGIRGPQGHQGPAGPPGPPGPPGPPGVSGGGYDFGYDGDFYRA
Experimental: as §1, §2

porcine collagen type II [4] = target: T4, porcine collagen type II (porcine); test: ELISA, collagen coated on the plate, dilution series of the binder, detection via StrepTag, A 450-600 nm
T4 construct: Prepared in house from pig eyes; also called p Col II; porcine type II collagen
Experimental: as §1, §2

rabbit collagen type II = target: T5, rabbit collagen type II (rabbit); test: as above
T5 construct: Prepared from rabbit eyes; also called rbCol II
Experimental: as §1, §2

human collagen type V [5] = target: T6, human collagen type V (human, UniProt P20908 559-1570; P05997 216-1229); test: ELISA, h Col V coated on the plate, A 450-600 nm
T6 construct: Bought; also called h Col V; type V collagen
T6 sequence (P20908 559-1570, chain 1 of 2): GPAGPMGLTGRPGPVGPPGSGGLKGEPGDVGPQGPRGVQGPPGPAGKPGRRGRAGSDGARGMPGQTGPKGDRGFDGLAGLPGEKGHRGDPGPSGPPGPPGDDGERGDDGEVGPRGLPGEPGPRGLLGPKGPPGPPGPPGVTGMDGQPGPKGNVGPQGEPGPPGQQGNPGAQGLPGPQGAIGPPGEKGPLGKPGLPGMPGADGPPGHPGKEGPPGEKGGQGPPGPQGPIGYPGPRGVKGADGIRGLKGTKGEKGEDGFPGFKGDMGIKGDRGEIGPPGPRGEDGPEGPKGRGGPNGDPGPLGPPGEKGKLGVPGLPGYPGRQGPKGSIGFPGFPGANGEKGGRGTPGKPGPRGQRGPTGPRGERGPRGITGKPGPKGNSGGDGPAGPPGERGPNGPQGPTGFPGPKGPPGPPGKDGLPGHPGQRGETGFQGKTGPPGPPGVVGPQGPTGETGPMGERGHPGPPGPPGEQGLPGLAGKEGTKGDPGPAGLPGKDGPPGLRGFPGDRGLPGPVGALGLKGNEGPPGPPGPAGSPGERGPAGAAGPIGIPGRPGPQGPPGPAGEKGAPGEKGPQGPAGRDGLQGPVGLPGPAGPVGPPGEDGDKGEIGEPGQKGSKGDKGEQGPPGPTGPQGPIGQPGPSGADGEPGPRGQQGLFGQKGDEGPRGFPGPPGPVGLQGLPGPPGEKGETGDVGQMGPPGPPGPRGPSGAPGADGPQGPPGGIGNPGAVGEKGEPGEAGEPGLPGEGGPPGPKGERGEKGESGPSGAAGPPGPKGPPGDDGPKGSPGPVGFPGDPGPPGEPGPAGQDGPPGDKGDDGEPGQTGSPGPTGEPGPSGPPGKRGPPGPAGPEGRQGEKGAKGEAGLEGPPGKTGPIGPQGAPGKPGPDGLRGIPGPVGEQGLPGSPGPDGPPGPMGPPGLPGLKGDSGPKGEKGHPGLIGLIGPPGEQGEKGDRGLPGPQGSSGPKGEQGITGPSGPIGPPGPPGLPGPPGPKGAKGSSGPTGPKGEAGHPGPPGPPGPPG
T6 sequence (P05997 216-1229, chain 2 of 2): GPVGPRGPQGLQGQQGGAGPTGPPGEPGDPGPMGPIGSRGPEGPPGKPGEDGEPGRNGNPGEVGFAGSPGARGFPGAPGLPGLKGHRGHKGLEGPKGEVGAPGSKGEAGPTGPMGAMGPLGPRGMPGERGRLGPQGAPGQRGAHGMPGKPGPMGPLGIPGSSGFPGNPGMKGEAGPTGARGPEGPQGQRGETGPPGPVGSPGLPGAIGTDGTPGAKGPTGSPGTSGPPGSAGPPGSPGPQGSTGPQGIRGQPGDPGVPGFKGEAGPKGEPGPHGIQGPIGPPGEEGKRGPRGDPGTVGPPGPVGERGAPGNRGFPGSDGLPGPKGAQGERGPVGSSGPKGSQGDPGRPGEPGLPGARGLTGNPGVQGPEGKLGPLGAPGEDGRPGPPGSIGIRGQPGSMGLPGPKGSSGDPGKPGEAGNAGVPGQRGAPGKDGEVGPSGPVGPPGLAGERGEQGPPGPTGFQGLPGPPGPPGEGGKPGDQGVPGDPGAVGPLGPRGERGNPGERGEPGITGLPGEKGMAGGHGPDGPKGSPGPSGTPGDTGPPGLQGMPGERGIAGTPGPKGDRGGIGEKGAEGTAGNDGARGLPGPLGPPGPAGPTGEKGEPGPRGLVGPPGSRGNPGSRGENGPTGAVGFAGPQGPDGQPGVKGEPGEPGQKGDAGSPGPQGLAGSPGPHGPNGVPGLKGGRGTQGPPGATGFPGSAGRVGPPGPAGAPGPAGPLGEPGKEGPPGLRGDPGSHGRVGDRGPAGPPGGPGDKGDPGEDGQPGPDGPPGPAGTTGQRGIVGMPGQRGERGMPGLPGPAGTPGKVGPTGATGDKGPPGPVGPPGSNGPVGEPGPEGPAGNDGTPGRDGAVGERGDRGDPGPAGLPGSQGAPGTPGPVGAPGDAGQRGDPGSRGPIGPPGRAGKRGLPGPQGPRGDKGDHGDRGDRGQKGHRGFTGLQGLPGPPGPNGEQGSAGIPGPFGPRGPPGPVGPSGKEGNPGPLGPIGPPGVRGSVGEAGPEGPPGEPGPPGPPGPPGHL
Experimental: as §1, §2

porcine collagen type II [6] = target: T4, porcine collagen type II; test: ELISA (KD determination by ELISA, Example 5)
[7] = target: T2, 67B89 (domain of fibronectin); test: SPR (Biacore), response at steady state; concentration not shown
Experimental: (§3) The purified proteins were immobilized on a CM-5 sensor chip (GE Healthcare) using NHS/EDC after PDEA activation resulting in 110-140 RU with a Biacore 3000 system (GE Healthcare). The chip was equilibrated with SPR running buffer (PBS 0.05% Tween pH 7.3). Upon binding, target analyte was accumulated on the surface increasing the refractive index. This change in the refractive index was measured in real time and plotted as response or resonance units versus time. The analytes were applied to the chip in serial dilutions with a flow rate of 30 μl/min. The association was performed for 120 seconds and the dissociation for 120 seconds. After each run, the chip surface was regenerated with 30 μl regeneration buffer (10 mM glycine pH 2.0) and equilibrated with running buffer.
(§4) Binding studies were carried out by the use of the BIAcore 3000 (GE Healthcare); data evaluation was operated via the BIAevaluation 3.0 software, provided by the manufacturer, using the Langmuir 1:1 model (RI=0). Evaluated dissociation constants (KD) were standardized against the immobilized protein and indicated. Shown is the change in refractive index measured in real time and plotted as response or resonance unit [RU] versus time [sec].

human collagen type III [8] = target: T1, human collagen type III; test: as above
Experimental: as §3, §4

human collagen type I [9] = target: T3, human collagen type I; test: as above
Experimental: as §3, §4

human collagen type V [10] = target: T6, human collagen type V; test: as above
Experimental: as §3, §4

BSA [11] = target: T7, BSA (UniProt P02769 25-607); test: as above
T7 construct: Control protein
Experimental: as §3, §4

[12] = target: T2, 67B89 (domain of fibronectin); test: SPR (Biacore 3000)
Experimental: as §3, §4

human collagen type V [13] = target: T6, human collagen type V; test: SPR (Biacore 3000)
Experimental: as §3, §4

BSA [14] = target: T7, BSA; test: SPR (Biacore 3000)
Experimental: as §3, §4

Binder	binding result (human collagen type III [1])	binding result [2]	binding result (human collagen type I [3])	Kd (porcine collagen type II [4])	Kd (rabbit collagen type II)	binding result (human collagen type V [5])	Kd (porcine collagen type II [6])	binding result [7]	binding result (human collagen type III [8])	binding result (human collagen type I [9])	binding result (human collagen type V [10])	binding result (BSA [11])	binding result [12]	binding result (human collagen type V [13])	binding result (BSA [14])
CID 211999 (SEQ ID NO: 38), dimer of SEQ ID NO: 2 (directly joint monomers) (designed binder, not shown: C-terminal Strep-tag (detected with anti-StrepTag antibody)) IAAKFDEAQSAADSEILHLPNLTEQQRHYFRRWLSDDPSVSTHILTQAQHLNDDQAPKIAAKFDEAQSAADSEILHLPNLTEQQRHYFRRWLSDDPSVSTHILTQAQHLNDDQAPKSAWSHPQFEK	no binding (tested: about 1100 nM)	no binding (tested: about 1100 nM)	no binding (tested: about 1100 nM)	14.3 nM	21.1 nM	no binding (tested: about 1100 nM)									
CID 212000 (SEQ ID NO: 39), dimer of SEQ ID NO: 2 with linker between the monomers (designed binder, not shown: C-terminal Strep-tag (detected with anti-StrepTag antibody)) IAAKFDEAQSAADSEILHLPNLTEQQRHYFRRWLSDDPSVSTHILTQAQHLNDDQAPKGGGGSGGGGSGGGGSGGGGSIAAKFDEAQSAADSEILHLPNLTEQQRHYFRRWLSDDPSVSTHILTQAQHLNDDQAPKSAWSHPQFEK	no binding (tested: about 1100 nM)	no binding (tested: about 1100 nM)	no binding (tested: about 1100 nM)	9.11 nM	12 nM	no binding (tested: about 1100 nM)									
CID 212001 (SEQ ID NO: 41), tetramer of SEQ ID NO: 2 (designed binder, not shown: C-terminal Strep-tag (detected with anti-StrepTag antibody)) IAAKFDEAQSAADSEILHLPNLTEQQRHYFRRWLSDDPSVSTHILTQAQHLNDDQAPKIAAKFDEAQSAADSEILHLPNLTEQQRHYFRRWLSDDPSVSTHILTQAQHLNDDQAPKIAAKFDEAQSAADSEILHLPNLTEQQRHYFRRWLSDDPSVSTHILTQAQHLNDDQAPKIAAKFDEAQSAADSEILHLPNLTEQQRHYFRRWLSDDPSVSTHILTQAQHLNDDQAPKSAWSHPQFEK	no binding (tested: 100 nM)	no binding (tested: 100 nM)	no binding (tested: 100 nM)	0.27 nM	0.21 nM	no binding (tested: 100 nM)									
211519 (SEQ ID NO: 37), homodimer of SEQ ID NO: 11 (designed binder, also called CID 211519; not shown: C-terminal Strep-tag from the expression vector) IAAKFDEAQQAAFYEILHLPNLTEQQRNYFIQWLRDDPSVSPTVLGTAQQLNDSQAPKIAAKFDEAQQAAFYEILHLPNLTEQQRNYFIQWLRDDPSVSPTVLGTAQQLNDSQAPK							700 nM	no binding	no binding	no binding	no binding	no binding			
211190 (SEQ ID NO: 1) (designed binder, also called CID211190; not shown: C-terminal Strep-tag from the expression vector) NAASHDEAQLSALVEIWDLPNLTTRQKQKFIYSLQRDPSVSKEVLGEAQKLNDSQAPK													no binding	no binding	no binding
